IC50 data for 15 molecules are collected here from patent US20100310640A1.

Settings in all cases: remark: other sources report otherwise
The target in assay [1] is T1, HLA-DR molecule DRB5*0101 (human).
T1 chain 1: not shown
T1 chain 2: not shown
As to the kind of experiment: radioligand inhibition, purified HLA-DR.

The target in assay [2] is T2, HLA-DR molecule DRB1*0404 (human).
T2 chain 1: not shown
T2 chain 2: not shown
Put plainly: radioligand inhibition, purified HLA-DR.

The target of assay [3] is T3, HLA-DR molecule DRB1*0101 (human).
T3 chain 1: not shown
T3 chain 2: not shown
Put plainly: radioligand inhibition, purified HLA-DR.

Assay [4] addresses T4, HLA-DR DRB1*0405 (human).
T4 chain 1: not shown
T4 chain 2: not shown
Put plainly: radioligand inhibition, purified HLA-DR.

The target in assay [5] is T5, HLA-DR DRB4*0101 (human).
T5 chain 1: not shown
T5 chain 2: not shown
Put plainly: radioligand inhibition, purified HLA-DR.

Assay [6] concerns the target T6, HLA-DR DRB1*0301 (human).
T6 chain 1: not shown
T6 chain 2: not shown
Put plainly: radioligand inhibition, purified HLA-DR.

For assay [7], the target named is T7, HLA-DR DRB1*0101 (human).
T7 chain 1: not shown
T7 chain 2: not shown
Put plainly: radioligand inhibition, purified HLA-DR.

Assay [8] concerns the target T8, HLA-DR DRB1*0701 (human).
T8 chain 1: not shown
T8 chain 2: not shown
As to the kind of experiment: radioligand inhibition, purified HLA-DR.

Assay [9] addresses T9, HLA-DR DRB5*0101 (human).
T9 chain 1: not shown
T9 chain 2: not shown
Put plainly: radioligand inhibition, purified HLA-DR.

Assay [10] has as its target T10, HLA-DR DRB1*0404 (human).
T10 chain 1: not shown
T10 chain 2: not shown
Put plainly: radioligand inhibition, purified HLA-DR.

For assay [11], the target named is T11, HLA-DR DRB1*0901 (human).
T11 chain 1: not shown
T11 chain 2: not shown
As to the kind of experiment: radioligand inhibition, purified HLA-DR.

The target in assay [12] is T12, HLA-DR DRB1*0401 (human).
T12 chain 1: not shown
T12 chain 2: not shown
As to the kind of experiment: radioligand inhibition, purified HLA-DR.

In assay [13] the target is T13, HLA-DR DRB1*0802 (human).
T13 chain 1: not shown
T13 chain 2: not shown
Put plainly: radioligand inhibition, purified HLA-DR.

In assay [14] the target is T14, HLA-DR DRB1*1101 (human).
T14 chain 1: not shown
T14 chain 2: not shown
Put plainly: radioligand inhibition, purified HLA-DR.

The target in assay [15] is T4, HLA-DR DRB1*0405 (human). Put plainly: radioligand competition, purified HLA-DR. (In general: Displacement assays read how much labelled ligand stays bound in the presence of the test substance.)
Assay [16] deals with T5, HLA-DR DRB4*0101 (human). As to the kind of experiment: radioligand competition, purified HLA-DR.
In assay [17] the target is T6, HLA-DR DRB1*0301 (human). As to the kind of experiment: radioligand competition, purified HLA-DR.
Assay [18] concerns the target T8, HLA-DR DRB1*0701 (human). As to the kind of experiment: radioligand competition, purified HLA-DR.
Assay [19] deals with T9, HLA-DR DRB5*0101 (human). Put plainly: radioligand competition, purified HLA-DR.
For assay [20], the target named is T10, HLA-DR DRB1*0404 (human). Put plainly: radioligand competition, purified HLA-DR.
The target of assay [21] is T15, HLA-DR DRB1*1302 (human).
T15 chain 1: not shown
T15 chain 2: not shown
As to the kind of experiment: radioligand competition, purified HLA-DR.

Assay [22] concerns the target T14, HLA-DR DRB1*1101 (human). Put plainly: radioligand competition, purified HLA-DR.
The target of assay [23] is T4, HLA-DR DRB1*0405 (human). As to the kind of experiment: radiolabeled-peptide inhibition, purified HLA-DR.
Assay [24] addresses T5, HLA-DR DRB4*0101 (human). Put plainly: radiolabeled-peptide inhibition, purified HLA-DR.
The target of assay [25] is T6, HLA-DR DRB1*0301 (human). As to the kind of experiment: radiolabeled-peptide inhibition, purified HLA-DR.
Assay [26] has as its target T8, HLA-DR DRB1*0701 (human). As to the kind of experiment: radiolabeled-peptide inhibition, purified HLA-DR.
Assay [27] concerns the target T15, HLA-DR DRB1*1302 (human). As to the kind of experiment: radiolabeled-peptide inhibition, purified HLA-DR.
Assay [28] deals with T14, HLA-DR DRB1*1101 (human). As to the kind of experiment: radiolabeled-peptide inhibition, purified HLA-DR.
Assay [29] concerns the target T16, HLA-DR molecule DRB4*0101 (human).
T16 chain 1: not shown
T16 chain 2: not shown
As to the kind of experiment: radioligand inhibition, purified HLA-DR.

Assay [30] addresses T17, HLA-DR molecule DRB1*1101 (human).
T17 chain 1: not shown
T17 chain 2: not shown
Put plainly: radioligand inhibition, purified HLA-DR.

For assay [31], the target named is T18, HLA-DR molecule DRB1*0701 (human).
T18 chain 1: not shown
T18 chain 2: not shown
As to the kind of experiment: radioligand inhibition, purified HLA-DR.

The target in assay [32] is T19, HLA-DR molecule DRB1*1201 (human).
T19 chain 1: not shown
T19 chain 2: not shown
Put plainly: radioligand inhibition, purified HLA-DR.

For assay [33], the target named is T20, HLA-DR molecule DRB1*1302 (human).
T20 chain 1: not shown
T20 chain 2: not shown
As to the kind of experiment: radioligand inhibition, purified HLA-DR.

Assay [34] concerns the target T21, HLA-DR molecule DRB1*0802 (human).
T21 chain 1: not shown
T21 chain 2: not shown
Put plainly: radioligand inhibition, purified HLA-DR.

For assay [35], the target named is T22, HLA-DR molecule DRB1*0405 (human).
T22 chain 1: not shown
T22 chain 2: not shown
Put plainly: radioligand inhibition, purified HLA-DR.

For assay [36], the target named is T23, HLA-DR molecule DRB1*0401 (human).
T23 chain 1: not shown
T23 chain 2: not shown
As to the kind of experiment: radioligand inhibition, purified HLA-DR.

Assay [37] concerns the target T7, HLA-DR DRB1*0101 (human). Put plainly: radioligand competition, purified HLA-DR.
The target in assay [38] is T13, HLA-DR DRB1*0802 (human). As to the kind of experiment: radioligand competition, purified HLA-DR.
The target in assay [39] is T24, HLA-DR DRB1*1201 (human).
T24 chain 1: not shown
T24 chain 2: not shown
Put plainly: radiolabeled-peptide inhibition, purified HLA-DR.

The target in assay [40] is T7, HLA-DR DRB1*0101 (human). Put plainly: radiolabeled-peptide inhibition, purified HLA-DR.
In assay [41] the target is T9, HLA-DR DRB5*0101 (human). As to the kind of experiment: radiolabeled-peptide inhibition, purified HLA-DR.
The target of assay [42] is T10, HLA-DR DRB1*0404 (human). Put plainly: radiolabeled-peptide inhibition, purified HLA-DR.
In assay [43] the target is T12, HLA-DR DRB1*0401 (human). As to the kind of experiment: radiolabeled-peptide inhibition, purified HLA-DR.
Assay [44] concerns the target T24, HLA-DR DRB1*1201 (human). As to the kind of experiment: radioligand competition, purified HLA-DR.
The target in assay [45] is T24, HLA-DR DRB1*1201 (human). As to the kind of experiment: radioligand inhibition, purified HLA-DR.
Assay [46] addresses T15, HLA-DR DRB1*1302 (human). Put plainly: radioligand inhibition, purified HLA-DR.
The target in assay [47] is HLA-DR DRB3*0101 (human). Put plainly: radioligand inhibition, purified HLA-DR.

B1: Peptide 9019.0046 (Her2/neu.350) (peptide)
peptide: LREVRAVTSANIQEF
By IC50 is commonly meant the point on the concentration scale where inhibition reaches its midpoint. Read a high IC50 as a need for much substance. As for B1, the IC50 was 94 nM in assay [1], 8.2 nM in [2] and 17 nM in assay [3].

B2: Peptide 9019.0095 (peptide)
peptide: RPRFRELVSEFSRMA
In the case of B2, the half-inhibitory concentration (IC50) in assay [4] stood at 151 nM; in assay [5], 351 nM; in assay [6], 6220 nM; in [7], 26 nM; in assay [8] it was 309 nM; in [9] it was 26 nM. The IC50 is 62 nM in assay [10]; 2320 nM in assay [11]; 38 nM in [12]; 376 nM in assay [13]; 125 nM in assay [14].

B3: CEA.119 (peptide 9019.0114) (peptide)
peptide: FYTLHVIKSDLVNEE
B3: the half-inhibitory concentration (IC50) in assay [15] came to 41 nM; in [16] it was 22 nM; in assay [17] it was 80 nM; in [18], 56 nM; in [19], 4500 nM; in [20], 169 nM.

B4: CEA.33 (peptide 9019.0106) (peptide)
peptide: TAKLTIESTPFNVAE
Turning to B4, the IC50 in [16] worked out at 53 nM; in assay [21], 35 nM; in [20], 41 nM; in [22], 6000 nM.

B5: 9019.0002 (peptide)
peptide: GMSYLEDVRLVHRDL
For the molecule B5, the IC50 stood at 4320 nM in [23]; 2540 nM in [24]; 27 nM in assay [25]; 5410 nM in [26]; 3790 nM in [27]; 244 nM in assay [28].

B6: Peptide 9019.0034 (Her2/neu.88) (peptide)
peptide: HNQVRQVPLQRLRIV
For B6, the IC50 in assay [29] was determined as 18 nM; in [30], 21 nM; in assay [31] it was 80 nM; in assay [2] it was 78 nM; in [32], 42 nM; in assay [33], 270 nM. Also, the IC50 stood at 85 nM in [34], 1300 nM in assay [35] and 840 nM in assay [36].

B7: Cyclin D1.199 (peptide 9019.0170) (peptide)
peptide: PPSMVAAGSVVAAVQ
In the case of B7, the IC50 in assay [16] was determined as 91 nM; in assay [37], 6.8 nM; in assay [21], 55 nM; in [38], 1400 nM.

B8: 9019.0044 (peptide)
peptide: CYGLGMEHLREVRAV
For B8, the concentration for half-maximal inhibition (IC50) in assay [23] was determined as 5120 nM; in assay [24], 444 nM; in assay [39], 19000 nM; in [25], 265 nM; in [40], 130 nM; in assay [26], 271 nM. Also, the values for the IC50 in [41], in assay [42] and in [43] were 3780 nM, 493 nM and 1030 nM, respectively.

B9: Peptide 9019.0185 (IGFBP2.184) (peptide)
peptide: LKSGMKELAVFREKV
In the case of B9, the 50% inhibitory concentration (IC50) in assay [34] was 260 nM; in assay [35], 34 nM.

B10: Peptide 9019.0190 (IGFBP2.249) (peptide)
peptide: ERGPLEHLYSLHIPN
Turning to B10, the half-maximal inhibitory concentration (IC50) in assay [1] came to 4000 nM; in [31] it was 18 nM; in [2], 29 nM; in [3], 7.7 nM; in [35] it was 110 nM.

B11: Cyclin D1.209 (peptide 9019.0171) (peptide)
peptide: VAAVQGLNLRSPNNF
Consider B11, for which the half-maximal inhibitory concentration (IC50) in assay [37] turned out to be 44 nM. That is a double-digit nanomolar value.

B12: 9019.0048 (peptide)
peptide: PESFDGDPASNTAPL
Take B12: the IC50 in assay [25] stood at 989 nM; in [26], 2820 nM; in [27] it was 3900 nM; in assay [42], 9020 nM; in [28] it was 12600 nM.

B13: CEA.24 (peptide 9019.0105) (peptide)
peptide: LLTFWNPPTTAKLTI
For B13, the IC50 in [44] was determined as 5000 nM; in assay [37], 6.9 nM; in assay [18], 3.7 nM; in assay [19], 13 nM; in assay [20], 52 nM; in assay [22] it was 52 nM.

B14: Her/neu.88 (peptide)
peptide: HNQVRQVPLQRLRIV
Consider B14, for which the IC50 was determined as 1300 nM in assay [4]; 18 nM in assay [5]; 42 nM in [45]; 80 nM in assay [8]; 270 nM in assay [46]; 78 nM in assay [10]. Moreover, the concentration for half-maximal inhibition (IC50) in assay [11] stood at 6940 nM; in assay [12], 840 nM; in assay [13], 9 nM; in [14], 21 nM.

B15: Peptide 9019.0023 (peptide)
peptide: CHLFYNEQQEARGVH
As to B15, the IC50 in assay [5] was determined as 5310 nM; in [45] it was 1860 nM; in assay [47], 18900 nM; in assay [7], 2490 nM; in [10], 3190 nM.
